Assays:
[1] = target: T1, HA-tagged human APOBEC3A (A3A-HA) (human, UniProt P31941 1-199); experiment: immunoblot of 293T lysates with A3-HA proteins (FIG. 3), hybridoma supernatant
T1 construct: Expressed by transient transfection in 293T cells; lysate resolved by SDS-PAGE (denatured) for the immunoblot; not shown: HA tag
Description: (§1) Cell lysates from 293T cells transiently transfected with each HA-tagged APOBEC3 protein (A3A-HA, A3B-HA, A3C-HA, A3D-HA, A3F-HA, A3G-HA, A3H-HA) or the expression vector alone were resolved by 12% SDS-PAGE and transferred to PVDF membrane. […] Membranes were further probed with the appropriate secondary antibodies including anti-rabbit IgG IR800CW (Odyssey 926-32211, LI-COR Biosciences, Lincoln, Nebr.) 1/20,000 or anti-mouse IgG IR800CW (Odyssey 827-08364, LI-COR Biosciences, Lincoln, Nebr.) 1/20,000 in 50% Blok (WBAVDP001, Millipore, Darmstadt, Germany) in PBS-T, (PBS, 0.1% Tween-20) and images were generated using LI-COR imaging (LI-COR Biosciences, Lincoln, Nebr.).

[2] = target: T2, HA-tagged human APOBEC3B (A3B-HA) (human, UniProt Q9UH17 1-382); experiment: hybridoma screening (ELISA-positive clones, then immunoblot of A3-HA lysates and immunofluorescence)
T2 construct: Expressed by transient transfection in 293T cells; lysate resolved by SDS-PAGE (denatured) for the immunoblot; not shown: HA tag

[3] = target: T3, endogenous human APOBEC3B (A3B) of cancer cell lines (human, UniProt Q9UH17 1-382); experiment: intracellular flow cytometry, OVCAR5 and MDA-MB-468 cells with control or A3B shRNA
T3 construct: whole, on cells; Untagged endogenous, intracellular protein: detected in fixed and permeabilised cells (immunofluorescence, flow cytometry) and in cell lysates (immunoblot); also called endogenous A3B
Description: OVCAR5 (Monks et al., 1991, J. Natl. Cancer Inst. 83:757-766) and MDA-MB-468 (ATCC HTB-132, ATCC, Manassas, Va.) cells were transduced with lentiviruses encoding either a control or A3B-specific shRNA. Following drug selection (puromycin), cells were fixed in 1% paraformaldehyde and permeabilized in cold methanol. […] After a single PBS wash to remove unbound antibody, cells were analyzed on a flow cytometer.

[4] = target: T2, HA-tagged human APOBEC3B (A3B-HA); experiment: immunoblot of 293T lysates with A3-HA proteins (FIG. 3), hybridoma supernatant
Description: as §1

T1 sequence (P31941 whole entry): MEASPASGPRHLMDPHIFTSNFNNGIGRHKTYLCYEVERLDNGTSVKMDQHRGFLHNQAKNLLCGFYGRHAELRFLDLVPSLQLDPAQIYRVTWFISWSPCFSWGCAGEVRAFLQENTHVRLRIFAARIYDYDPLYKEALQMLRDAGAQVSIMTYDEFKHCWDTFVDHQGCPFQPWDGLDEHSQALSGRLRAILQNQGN
T2 sequence (Q9UH17 whole entry): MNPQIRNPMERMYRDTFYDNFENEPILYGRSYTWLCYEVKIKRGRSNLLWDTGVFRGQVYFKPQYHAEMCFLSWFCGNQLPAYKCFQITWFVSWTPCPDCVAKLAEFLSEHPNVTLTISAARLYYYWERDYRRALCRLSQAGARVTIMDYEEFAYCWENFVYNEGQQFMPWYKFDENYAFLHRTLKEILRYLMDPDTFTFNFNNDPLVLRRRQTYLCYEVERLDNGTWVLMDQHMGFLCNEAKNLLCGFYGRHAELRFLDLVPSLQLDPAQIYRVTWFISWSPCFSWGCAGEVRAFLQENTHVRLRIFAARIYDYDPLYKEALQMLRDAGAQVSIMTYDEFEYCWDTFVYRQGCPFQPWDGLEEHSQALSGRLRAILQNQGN
T3 sequence (Q9UH17 whole entry): as above

Binder	binding result [1]	binding result [2]	binding result [3]	binding result [4]
monoclonal antibody produced by hybridoma cell line 5210-08-15 (antibody, V domains shown, Rabbit monoclonal antibody, tested as hybridoma culture supernatant; The Ig chain entries come from cDNA and may include a leader peptide; no cleavage site stated) VH: QEQLEESGGGLVKPGGTLTLTCKASGFSFSDGYWMCWIRQAPGKGLEWIGCIYDASGGAYFPSWAKGRFTISKTSSTTVTLEMTSLTDADTAIYFCVKTDYGSSKLWGPGTLVTVSS VL: AVVLTQTASPVSAPVGGTVTINCQASQNIYSNLAWYQQKPGQPPKLLIYGASTLASGVSSRFKGSRSGTEFTLTISDLECADAATYYCQSYVYSSSTADTFGGGTKVVVEV	binds	binds		
monoclonal antibody produced by hybridoma cell line 5210-87-13 (antibody, V domains shown, Rabbit monoclonal antibody; hybridoma supernatant in the screens, mAb preparation in the work on endogenous A3B; The Ig chain entries come from cDNA and may include a leader peptide; no cleavage site stated) VH: QSVKESEGGLFKPTDTLTLTCTVSGFSLSSYRMHWVRQAPGNGLEWIGSISSGGNAAYARWANTRSTITRNTNLNTVTLKMTSLTAADTATYFCGSNVIWGPGTLVTVSS VL: DPVLTQTPSSVSAAVGGTVTISCQSSESVFKKNWLAWYHQKPGQSPKRLIYGASTLESGAPSRFRGSGSGTQFTLTISDLECGDAATYYCAGAFDGNIYPFGGGTEVVVKG	binds		binds	binds

— US20180171029A1 (REGENTS OF THE UNIVERSITY OF MINNESOTA, published 2018)
